In test [1] the target is T1, human TNFR10 (human).
T1 construct: whole, on cells; Name as printed is ambiguous (TNFRSF10A-D)
The test can be described thus: flow cytometry, HEK293 transfectants vs control cells. Put shortly:
(§1)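 Anti-human CD40 antibodies were tested by flow cytometry for binding to HEK293 cells transiently transfected with human TNFR1, TNFR2, TNFR10, TNFR14, or cynomolgus or mouse CD40. Affinity for human and cynomolgus CD40 was measured by Octet, giving Kon, Kdis and KD.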
For orientation: In flow cytometry, cells or beads pass a laser one at a time.

Test [2] deals with T2, mouse CD40 on cells (mouse, UniProt P27512 20-289).
T2 construct: whole, on cells; also called mouse CD40 on HEK293 cells; CD40 on mouse B cells
T2 sequence (looked up): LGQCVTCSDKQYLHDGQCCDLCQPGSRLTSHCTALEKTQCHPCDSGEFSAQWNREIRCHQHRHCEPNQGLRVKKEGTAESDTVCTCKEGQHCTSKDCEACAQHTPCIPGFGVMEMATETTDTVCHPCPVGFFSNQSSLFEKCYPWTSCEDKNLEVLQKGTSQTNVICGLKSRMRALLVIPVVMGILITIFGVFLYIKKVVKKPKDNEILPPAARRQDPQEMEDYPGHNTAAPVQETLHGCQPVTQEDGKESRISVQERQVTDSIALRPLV
The test is described as above. In outline: as §1

The target in test [3] is T2, mouse CD40 on cells. The test can be described thus: flow cytometry, HEK293 transfectants.
Test [4] addresses human CD40 (human, UniProt P25942 21-193, limits assumed). The test can be described thus: Octet. As to the method: (§2) The binding affinity of anti-human CD40 antibodies to human and cynomolgus monkey CD40 was measured by Octet assay (Table 3), quantifying association rate (Kon), disassociation rate (Kdis), and equilibrium binding constant (KD). Cross-reactivity of anti-CD40 antibodies to related TNF receptor superfamily (TNFRSF) members was evaluated by expressing human TNFR1, TNFR2, TNFR10, or TNFR14 on HEK293 cells by transient transfection of expression vectors encoding these genes. Binding of indicated anti-human CD40 antibody to these transfected cells was determined by flow cytometry. […] Cross-reactivity of anti-CD40 antibodies to cynomolgus monkey and mouse CD40 was evaluated by expressing cynomolgus monkey or mouse CD40 on HEK293 cells by transient transfection of expression vectors encoding these genes. Binding of indicated anti-human CD40 antibody to cells overexpressing cynomolgus monkey and mouse CD40 was determined by flow cytometry.
(In general: Biolayer interferometry detects binding as a change in optical thickness at a sensor tip.)

The target of test [5] is T3, cynomolgus monkey CD40 (cynomolgus monkey, UniProt P25942 21-193 (human entry), limits assumed).
T3 chain: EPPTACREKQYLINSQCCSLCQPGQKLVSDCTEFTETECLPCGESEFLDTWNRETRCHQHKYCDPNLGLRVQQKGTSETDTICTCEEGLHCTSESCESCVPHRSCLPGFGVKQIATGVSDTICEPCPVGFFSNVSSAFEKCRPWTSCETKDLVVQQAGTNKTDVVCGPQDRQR
The test can be described thus: Octet. As to the method: as §2

human CD40, sequence (P25942 21-193 limits assumed): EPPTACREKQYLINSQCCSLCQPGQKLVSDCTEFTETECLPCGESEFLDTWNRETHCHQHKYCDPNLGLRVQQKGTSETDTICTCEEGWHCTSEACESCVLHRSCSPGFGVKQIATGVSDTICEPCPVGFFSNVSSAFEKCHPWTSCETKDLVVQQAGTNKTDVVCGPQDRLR

B1: 39C2 (antibody, IgG4, V domains shown)
VH: QVQLVQSGTEVKKPGASVKVSCKASGYTFPGYYMHWVRQAPGQGLEWMGWINPDSGGTKYTQKFQGRVTLTRDASVSTAYIDLNRLRSDDTAVYYCARERCRTTNCYLDYWGQGSLVTVSS
VL: QSALTQPASVSGSPGQSITISCTGTSSDVGNYNLVSWYQQHPGKAPKLMIYEVNRRPSGVSNRFSGSKSGNTASLTISGLQAEDEAEYYCCSYAGRDTFVVFGGGTKLTVLG
notes: also called 4887-1
For the molecule B1, the “fold over control (gMFI)” value in test [1] was determined as 0.86 fold; in test [2] it was 0.9 fold. Further, in test [3], the binding result is “no binding”. Also, the Kd (usually the concentration at which binding is half-saturated) in test [4] amounted to 1020 pM; in test [5], 730 pM. The koff – broadly, the rate constant with which the complex falls apart – in test [4] stood at 0.000614 s⁻¹; in test [5], 0.000376 s⁻¹. Further, the kon (commonly the rate constant with which the complex forms) in test [4] was 599000 M⁻¹ s⁻¹; in test [5] it was 518000 M⁻¹ s⁻¹.

B2: 30A12 (antibody, IgG4, V domains shown)
VH: EVQLLESGGGLVQPGGSLRLSCAASGFTFSRNAMSWVRQAPGKGLEWVSATGGSGISTYYADSVKGRFTISRDNSKNTLYLQMNSLRAEDTAVYYCARGYSNSWWYFDYWGQGTLVTVSS
VL: QSALTQPASVSGSPGQSITISCTGTSSDVGNYNLVSWYQQHPGKAPKLMIFEVNQRPSGVSNRFSGSKSGTTASLTISGLQAADEADYFCCSYTTSSTYVIFGGGTKLTVLG
notes: also called 4878-1
Take B2: the “fold over control (gMFI)” value in test [1] was found to be 0.91 fold. Moreover, the “fold over control (gMFI)” value in test [2] turned out to be 1.3 fold. The binding result in test [3] is “no binding”. In test [4], this molecule gave a Kd of 690 pM, a koff of 0.000368 s⁻¹ and a kon of 533000 M⁻¹ s⁻¹. In addition, in test [5], the affinity, expressed as Kd, was 560 pM; the koff was 0.000306 s⁻¹; the on-rate (kon) was 544000 M⁻¹ s⁻¹.

B3: 4G7 (antibody, IgG4, V domains shown)
VH: QVQLVQSGAEVKKPGASVKVSCKASGYTFAGYYMHWVRQAPGQGLEWMGWINPDSGGTNFAQQFQGRVTMTRDTSISTAYMEVSRLRSDDTAVFYCAREKITMTGIYFDYWGQGTLVTVSS
VL: DIQMTQSPSSLSASVGDILTITCRASQNITTYLNWYQQKPGKAPNLLISAASRLRSGVPSRFSGSGSGTDFTLTISSLQPVDFTTFYCQQTFTTPWTFGQGTKVEIKR
notes: also called 4869-1
For the molecule B3, the “fold over control (gMFI)” value was 0.87 fold in test [1] and 0.9 fold in test [2]. Moreover, in test [3], the binding result is recorded as “no binding”. The figures for the Kd in test [4] and in test [5] were 880 pM and 1720 pM, respectively. Also, the values for the koff in test [4] and in test [5] were 0.00108 s⁻¹ and 0.00193 s⁻¹, respectively. Besides, the kon in test [4] turned out to be 1.23e+06 M⁻¹ s⁻¹; in test [5], 1.13e+06 M⁻¹ s⁻¹.

B4: 36F3 (antibody, IgG4, V domains shown)
VH: QVQLQQSGPGLVKPSQTLSLTCAISGDSVSSSRTAWNWIRQSPSRGLEWLGRTYYRSKWYHDYSVSVKSRITIDPDTSKNQFSLQLNSVTPEDTAVYYCARGAAPFDYWGQGTLVTVSS
VL: EIVLTQSPGTLSLSPGERATLSCRASQSVSSNYLAWYQQKPGQAPRALIYAASNRAAGISDRFSGSGSGTDFTLTISRLEPEDFAVYFCQQYGSSPLTFGGGTKVEIKR
notes: also called 4891-1
Consider B4, for which the “fold over control (gMFI)” value in test [1] worked out at 0.86 fold; in test [2] it was 0.9 fold. In addition, the binding result in test [3] is “no binding”. The figures for the equilibrium dissociation constant (Kd) in test [4] and in test [5] were 6870 pM and 4020 pM, respectively. In addition, the koff is 0.000443 s⁻¹ in test [4] and 0.00021 s⁻¹ in test [5]. The kon in test [4] stood at 64500 M⁻¹ s⁻¹; in test [5], 52200 M⁻¹ s⁻¹.

B5: 29H10 (antibody, V domains shown)
VH: QVQLVQSGAEVTKPGASVKVSCKASGYTFAGYYMHWVRQAPGQGLEWMGWINPHSGGTNYAQKFQDRVTMTRDTSINTAYMELSRLRSDDTAVYYCARERISMVRGVGHNWFAPWGQGTLVTVSS
VL: DIQMTQSPSSLSASVGDRVTITCRASQDISNNLAWFQQKPGKPPKSLMYAASSLHSGVPSTFSGSGSGTDFTFTISSLQPEDFATYYCQQYNSYPLTFGGGTKVEIRR
notes: also called 4877-1
B5: the “fold over control (gMFI)” value in test [1] is 0.89 fold. For the same molecule, the “fold over control (gMFI)” value in test [2] turned out to be 0.8 fold. The binding result in test [3] is recorded as “no binding”. Also, in test [4], the affinity, expressed as Kd, was 410 pM; the koff was found to be 0.000164 s⁻¹; the kon worked out at 398000 M⁻¹ s⁻¹. Further, in test [5], the affinity, expressed as Kd, was 390 pM; the koff was determined as 0.000244 s⁻¹; the kon turned out to be 612000 M⁻¹ s⁻¹.

B6: 35F11 (antibody, IgG4, V domains shown)
VH: QVQLVESGGGVVQPGRSLRLSCAASGFTLSSYGMHWVRQAPGKGLEWVAVIWYDGSNKYYADSVKGRVTISRDNSKNTLYLQMNSLRAEDTAVYYCTRDGRNYVYFDNWGQGTLVTVSS
VL: QSALTQPRSVSGSPGQSVTISCTGTSSDVGGYIFVSWYQQHPGKAPKLMIYDVSKRPSGVPDRFSGSKSVNTASLTISGLQAEDETDYYCCSYAGNYTYVFGTGTKVTVLG
notes: also called 4868-1
As to B6, in test [1], the “fold over control (gMFI)” value worked out at 0.73 fold. Also, the “fold over control (gMFI)” value in test [2] came out at 0.8 fold. Also, the binding result in test [3] is recorded as “no binding”. In test [4], this molecule came in with a Kd of 550 pM, a koff of 0.00031 s⁻¹ and a kon of 556000 M⁻¹ s⁻¹. In test [5], this molecule had a Kd of 620 pM, a koff of 0.000314 s⁻¹ and a kon of 506000 M⁻¹ s⁻¹.

B7: 37A6 (antibody, IgG4, V domains shown)
VH: QVQLVESGGGLVKPGGSLRLSCAASEFTFSDYYMSWIRQAPGKGLEWVSYISRSGDTIYYADSVKGRFTISRDNAKNSLYLQMNGLRAEDTAVYYCARDLAAGATGGLDCWGQGTLVTVSS
VL: SYELTQPPSVSVSPGQTASITCSGERLGNKYICWYQQKPGQSPVLVIYQDFKRPSGIPERFSGSNSGITATLTISGTQAMDEADYYCQAWDSRTVVFGGGTKLTVLG
notes: also called 4865-1
Turning to B7, the “fold over control (gMFI)” value in test [1] was 0.88 fold. For the same molecule, the “fold over control (gMFI)” value in test [2] was determined as 0.9 fold. Moreover, in test [3], the binding result was “no binding”. In test [4], this molecule showed a dissociation constant Kd of 1100 pM, a koff of 0.000672 s⁻¹ and a kon of 612000 M⁻¹ s⁻¹. For the same molecule, in test [5], the Kd came out at 730 pM, the koff is 0.000387 s⁻¹ and the kon was 531000 M⁻¹ s⁻¹.

B8: 33H6 (antibody, IgG4, V domains shown)
VH: QVQLVQSGAEVKKPGASVKVSCKASGYTFPGYYMYWLRQAPGQGLEWMGWINPDSGDTNYAQKFQGRVTMTRDTSISTAFMELSRLRSDDTAVYYCAREKPRYFDSFYYYLMDVWGQGTTVTVSS
VL: DIQMTQSPSSLSASVGDRVTITCRAGQNISRHLNWYQQNPGKAPKVLIHPASSLPSGVPSRFSGSGSGTDFSLTISSLQPEDFGTYFCQQSYSTPPTFGGGTKVELKR
notes: also called 4883-1
B8: the “fold over control (gMFI)” value in test [1] was found to be 0.77 fold. In addition, the “fold over control (gMFI)” value in test [2] was 0.9 fold. In addition, the binding result in test [3] is listed as “no binding”. For the same molecule, in test [4], binding was put at a Kd of 1340 pM, the koff turned out to be 0.00068 s⁻¹ and the kon came to 509000 M⁻¹ s⁻¹. In test [5], this molecule registered a Kd of 1040 pM, a koff of 0.000577 s⁻¹ and a kon of 556000 M⁻¹ s⁻¹.

Values taken from US20260109776A1 (Amgen, published 2026).
